Test results as given in PMC6555819, “Comprehensive study of nuclear receptor DNA binding provides a revised framework for understanding receptor specificity”.
Positions count from the first letter of the chain named.

B1: NRC3_random_hg19_334_o1 (dsDNA)
DNA 1: GCTGCTGACTTGCTGGTTAGAGGGAACACATTCCCAGCGATTGACAGCGTAGAATGAAGG
DNA 2: CCTTCATTCTACGCTGTCAATCGCTGGGAATGTGTTCCCTCTAACCAGCAAGTCAGCAGC
B2: NRC3_random_hg19_29_o1 (dsDNA)
DNA 1: GCGGTTGAATGCCCAGATAGTACACACACCAAGCTTGCGATTGACAGCGTAGAATGAAGG
DNA 2: CCTTCATTCTACGCTGTCAATCGCAAGCTTGGTGTGTGTACTATCTGGGCATTCAACCGC
B3: NRC3_wobSeed121_DR5_C7A_o1 (dsDNA)
DNA 1: GCCAAAATAGGTCACCGGAAGGTCAAAGTCCGCATGGCGATTGACAGCGTAGAATGAAGG
DNA 2: CCTTCATTCTACGCTGTCAATCGCCATGCGGACTTTGACCTTCCGGTGACCTATTTTGGC
B4: NRC3_wobSeed106_DR4_G23C_o1 (dsDNA)
DNA 1: GCCTCGAAAGGTCGGTTGAGGTCAGTATACGGATAAGCGATTGACAGCGTAGAATGAAGG
DNA 2: CCTTCATTCTACGCTGTCAATCGCTTATCCGTATACTGACCTCAACCGACCTTTCGAGGC
B5: NRC3_wobSeed10_DR0_G14A_o1 (dsDNA)
DNA 1: GCATCGAAAGGTCAAGGTGAGTATAGAGAAAGGGAAGCGATTGACAGCGTAGAATGAAGG
DNA 2: CCTTCATTCTACGCTGTCAATCGCTTCCCTTTCTCTATACTCACCTTGACCTTTCGATGC
B6: NRC3_wobSeed130_DR5_G14A_o1 (dsDNA)
DNA 1: GCCTCGAAAGGTCATGCTCAGGTGAGTATACCAAACGCGATTGACAGCGTAGAATGAAGG
DNA 2: CCTTCATTCTACGCTGTCAATCGCGTTTGGTATACTCACCTGAGCATGACCTTTCGAGGC
B7: NRC3_wobSeed113_DR4_T8G_o1 (dsDNA)
DNA 1: GCATATGGAGGTTAGCTGGGGTCATTCAGACTAGGCGCGATTGACAGCGTAGAATGAAGG
DNA 2: CCTTCATTCTACGCTGTCAATCGCGCCTAGTCTGAATGACCCCAGCTAACCTCCATATGC
B8: NRC3_random_hg19_484_o1 (dsDNA)
DNA 1: GCCAGCAAACTAGGAATCAAGAAACTGAGTTCTGGCGCGATTGACAGCGTAGAATGAAGG
DNA 2: CCTTCATTCTACGCTGTCAATCGCGCCAGAACTCAGTTTCTTGATTCCTAGTTTGCTGGC
B9: NRC3_wobSeed25_DR1_C7A_o1 (dsDNA)
DNA 1: GCCAAAATAGGTCAAAGGTCAAAGTCGAGCCAACCAGCGATTGACAGCGTAGAATGAAGG
DNA 2: CCTTCATTCTACGCTGTCAATCGCTGGTTGGCTCGACTTTGACCTTTGACCTATTTTGGC
B10: NRC3_wobSeed25_DR1_A6G_o1 (dsDNA)
DNA 1: B9 DNA 1 with A6G, A7C
DNA 2: B9 DNA 2 with T54G, T55C

Assays:
[1] = target: LXRa:RXRa (Homo sapiens, UniProt Q13133;P19793 full;full); test: no ligand; PBM; 270 nM : 90 nM RXRa; PBS pH 7.4, 2% milk, 0.02% Triton X-100, 1 mM DTT, BSA, 0.4 mg/ml salmon testes DNA; settings: tags: His kept;His cleaved; copies: 1;1; label: surface-attached array probe
Sequence of LXRa:RXRa (Q13133 whole entry, chain 1 of 2): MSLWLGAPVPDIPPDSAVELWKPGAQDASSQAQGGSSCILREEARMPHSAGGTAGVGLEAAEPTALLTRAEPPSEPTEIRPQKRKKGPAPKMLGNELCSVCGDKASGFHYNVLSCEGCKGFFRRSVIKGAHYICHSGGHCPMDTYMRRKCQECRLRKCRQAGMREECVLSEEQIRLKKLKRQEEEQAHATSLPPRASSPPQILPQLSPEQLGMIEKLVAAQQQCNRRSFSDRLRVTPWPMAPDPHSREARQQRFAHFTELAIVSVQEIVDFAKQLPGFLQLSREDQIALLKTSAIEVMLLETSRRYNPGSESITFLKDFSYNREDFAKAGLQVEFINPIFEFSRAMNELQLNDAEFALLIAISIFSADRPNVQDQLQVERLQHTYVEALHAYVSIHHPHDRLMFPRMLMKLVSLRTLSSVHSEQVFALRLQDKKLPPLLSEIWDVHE
Sequence of LXRa:RXRa (P19793 whole entry, chain 2 of 2): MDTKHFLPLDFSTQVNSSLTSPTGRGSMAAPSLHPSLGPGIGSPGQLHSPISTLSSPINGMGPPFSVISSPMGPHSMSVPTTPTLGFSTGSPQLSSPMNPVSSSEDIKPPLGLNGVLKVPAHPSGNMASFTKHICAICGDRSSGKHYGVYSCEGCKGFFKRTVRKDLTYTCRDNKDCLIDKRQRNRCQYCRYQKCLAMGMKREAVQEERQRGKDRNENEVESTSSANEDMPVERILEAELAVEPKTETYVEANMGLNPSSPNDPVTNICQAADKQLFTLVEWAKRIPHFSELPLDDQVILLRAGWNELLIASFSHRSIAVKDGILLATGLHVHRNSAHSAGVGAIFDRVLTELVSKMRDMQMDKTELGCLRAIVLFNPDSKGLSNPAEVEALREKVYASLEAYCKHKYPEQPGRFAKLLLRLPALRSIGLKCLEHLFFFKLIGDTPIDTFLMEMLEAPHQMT
Method in brief: (§1)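 On custom Agilent 4×180K arrays, double-stranded probes with 34-nt variable regions carried direct-repeat seeds, single-nucleotide variants, half-site ablations or random human genomic background. Ligand-free nuclear receptor dimers were applied for 1 h, and binding was read with antibodies against each partner (one per run). Binding z-scores come from regression-normalized fluorescence, with the random background probes as reference.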

[2] = target: LXRb:RXRa (Homo sapiens, UniProt P55055;P19793 full;full); test: as above; settings: tags: His kept;His cleaved; copies: 1;1; label: surface-attached array probe
Sequence of LXRb:RXRa (P55055 whole entry, chain 1 of 2): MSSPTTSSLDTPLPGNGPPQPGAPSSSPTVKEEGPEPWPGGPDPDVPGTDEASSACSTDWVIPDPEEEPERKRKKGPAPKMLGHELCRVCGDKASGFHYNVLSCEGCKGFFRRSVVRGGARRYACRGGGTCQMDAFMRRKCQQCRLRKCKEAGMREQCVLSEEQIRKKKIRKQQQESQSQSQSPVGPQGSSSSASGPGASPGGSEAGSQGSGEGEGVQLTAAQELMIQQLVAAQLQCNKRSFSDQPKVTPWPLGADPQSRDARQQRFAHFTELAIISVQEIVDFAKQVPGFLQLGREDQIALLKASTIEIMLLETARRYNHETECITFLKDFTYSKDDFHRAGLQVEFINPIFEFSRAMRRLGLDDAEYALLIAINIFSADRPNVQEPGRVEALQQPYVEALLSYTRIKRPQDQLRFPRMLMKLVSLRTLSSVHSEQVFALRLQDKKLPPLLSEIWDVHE
Sequence of LXRb:RXRa (P19793 whole entry, chain 2 of 2): as the sequence (P19793 whole entry, chain 2 of 2) above
Method in brief: as §1

[3] = target: RARb:RXRa (Homo sapiens, UniProt P10826;P19793 full;full); test: as above; settings: tags: His kept;His cleaved; copies: 1;1; label: surface-attached array probe
Sequence of RARb:RXRa (P10826 whole entry, chain 1 of 2): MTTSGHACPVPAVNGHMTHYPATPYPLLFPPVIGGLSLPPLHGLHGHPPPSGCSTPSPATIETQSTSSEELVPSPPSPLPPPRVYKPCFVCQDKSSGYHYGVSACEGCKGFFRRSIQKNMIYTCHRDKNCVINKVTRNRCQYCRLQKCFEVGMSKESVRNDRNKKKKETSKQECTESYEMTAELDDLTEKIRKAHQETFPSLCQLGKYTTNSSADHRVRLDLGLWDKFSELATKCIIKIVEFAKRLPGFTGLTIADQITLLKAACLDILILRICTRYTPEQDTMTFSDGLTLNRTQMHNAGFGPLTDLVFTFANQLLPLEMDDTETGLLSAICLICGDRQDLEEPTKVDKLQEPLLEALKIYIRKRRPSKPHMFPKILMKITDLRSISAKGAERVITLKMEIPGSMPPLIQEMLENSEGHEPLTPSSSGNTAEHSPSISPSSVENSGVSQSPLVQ
Sequence of RARb:RXRa (P19793 whole entry, chain 2 of 2): as the sequence (P19793 whole entry, chain 2 of 2) above
Method in brief: as §1

[4] = target: VDR:RXRa (Homo sapiens, UniProt P11473;P19793 full;full); test: as above; settings: tags: His kept;His cleaved; copies: 1;1; label: surface-attached array probe
Sequence of VDR:RXRa (P11473 whole entry, chain 1 of 2): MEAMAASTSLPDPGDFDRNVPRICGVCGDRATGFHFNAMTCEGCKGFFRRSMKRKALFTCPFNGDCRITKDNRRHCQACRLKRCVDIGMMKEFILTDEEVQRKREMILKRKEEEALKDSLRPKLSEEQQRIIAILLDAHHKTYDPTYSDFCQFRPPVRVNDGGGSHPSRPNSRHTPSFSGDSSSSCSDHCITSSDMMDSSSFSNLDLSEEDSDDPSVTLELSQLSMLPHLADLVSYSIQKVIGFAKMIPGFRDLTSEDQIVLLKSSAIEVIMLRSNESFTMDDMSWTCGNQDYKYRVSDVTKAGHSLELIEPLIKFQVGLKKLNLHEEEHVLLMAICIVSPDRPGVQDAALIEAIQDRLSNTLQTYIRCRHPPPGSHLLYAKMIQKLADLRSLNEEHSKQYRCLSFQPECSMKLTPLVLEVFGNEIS
Sequence of VDR:RXRa (P19793 whole entry, chain 2 of 2): as the sequence (P19793 whole entry, chain 2 of 2) above
Method in brief: as §1

[5] = target: RARg:RXRa (Homo sapiens, UniProt P13631;P19793 full;full); test: as above; settings: tags: His kept;His cleaved; copies: 1;1; label: surface-attached array probe
Sequence of RARg:RXRa (P13631 whole entry, chain 1 of 2): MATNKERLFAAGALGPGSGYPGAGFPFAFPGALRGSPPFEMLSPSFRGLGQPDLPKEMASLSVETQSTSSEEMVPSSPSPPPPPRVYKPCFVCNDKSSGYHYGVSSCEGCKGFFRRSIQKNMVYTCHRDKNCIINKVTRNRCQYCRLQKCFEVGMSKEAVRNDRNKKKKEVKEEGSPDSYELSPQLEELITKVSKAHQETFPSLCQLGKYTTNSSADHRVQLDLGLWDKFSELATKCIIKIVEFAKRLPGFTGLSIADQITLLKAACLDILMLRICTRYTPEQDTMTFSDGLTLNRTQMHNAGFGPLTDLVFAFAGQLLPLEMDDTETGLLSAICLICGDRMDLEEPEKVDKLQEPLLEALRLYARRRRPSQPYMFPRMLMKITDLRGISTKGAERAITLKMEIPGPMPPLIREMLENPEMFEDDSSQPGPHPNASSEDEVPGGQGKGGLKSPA
Sequence of RARg:RXRa (P19793 whole entry, chain 2 of 2): as the sequence (P19793 whole entry, chain 2 of 2) above
Method in brief: as §1

[6] = target: RXRa (Homo sapiens, UniProt P19793); test: no ligand; PBM; 180 nM; PBS pH 7.4, 2% milk, 0.02% Triton X-100, 1 mM DTT, BSA, 0.4 mg/ml salmon testes DNA; settings: tags: His cleaved; chain copies: 2; label: surface-attached array probe
Sequence of RXRa (P19793 whole entry): as the sequence (P19793 whole entry, chain 2 of 2) above

[7] = target: PXR:RXRa (Homo sapiens, UniProt O75469;P19793 full;full); test: no ligand; PBM; 270 nM : 90 nM RXRa; PBS pH 7.4, 2% milk, 0.02% Triton X-100, 1 mM DTT, BSA, 0.4 mg/ml salmon testes DNA; settings: tags: His kept;His cleaved; copies: 1;1; label: surface-attached array probe
Sequence of PXR:RXRa (O75469 whole entry, chain 1 of 2): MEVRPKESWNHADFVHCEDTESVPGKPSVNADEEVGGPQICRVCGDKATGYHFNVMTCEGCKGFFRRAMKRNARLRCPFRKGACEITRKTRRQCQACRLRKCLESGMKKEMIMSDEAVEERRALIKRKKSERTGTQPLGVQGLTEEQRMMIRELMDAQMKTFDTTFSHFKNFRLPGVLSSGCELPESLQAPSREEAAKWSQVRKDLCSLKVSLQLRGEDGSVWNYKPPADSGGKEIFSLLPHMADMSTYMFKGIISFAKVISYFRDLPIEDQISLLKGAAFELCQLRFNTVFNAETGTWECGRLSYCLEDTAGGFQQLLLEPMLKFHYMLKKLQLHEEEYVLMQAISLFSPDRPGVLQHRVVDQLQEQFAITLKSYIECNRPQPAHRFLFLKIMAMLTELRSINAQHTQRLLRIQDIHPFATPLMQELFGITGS
Sequence of PXR:RXRa (P19793 whole entry, chain 2 of 2): as the sequence (P19793 whole entry, chain 2 of 2) above
Method in brief: as §1

[8] = target: FXR:RXRa (Homo sapiens, UniProt Q96RI1;P19793 full;full); test: as above; settings: tags: His kept;His cleaved; copies: 1;1; label: surface-attached array probe
Sequence of FXR:RXRa (Q96RI1 whole entry, chain 1 of 2): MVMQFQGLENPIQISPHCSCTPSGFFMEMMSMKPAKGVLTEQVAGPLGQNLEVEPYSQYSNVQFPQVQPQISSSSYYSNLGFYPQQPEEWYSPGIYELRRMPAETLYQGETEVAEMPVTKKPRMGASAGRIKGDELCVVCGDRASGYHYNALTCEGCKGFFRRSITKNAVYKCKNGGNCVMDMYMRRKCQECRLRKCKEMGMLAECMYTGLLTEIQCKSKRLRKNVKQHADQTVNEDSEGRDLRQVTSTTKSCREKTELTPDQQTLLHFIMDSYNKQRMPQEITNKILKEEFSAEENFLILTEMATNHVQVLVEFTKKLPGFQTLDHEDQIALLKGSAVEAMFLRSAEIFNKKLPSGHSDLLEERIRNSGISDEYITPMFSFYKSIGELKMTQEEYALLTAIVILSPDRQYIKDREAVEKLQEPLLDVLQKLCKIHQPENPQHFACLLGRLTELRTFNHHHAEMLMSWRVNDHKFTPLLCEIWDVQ
Sequence of FXR:RXRa (P19793 whole entry, chain 2 of 2): as the sequence (P19793 whole entry, chain 2 of 2) above
Method in brief: as §1

[9] = target: PPARa:RXRa (Homo sapiens, UniProt Q07869;P19793 full;full); test: as above; settings: tags: GST kept;His cleaved; copies: 1;1; label: surface-attached array probe
Sequence of PPARa:RXRa (Q07869 whole entry, chain 1 of 2): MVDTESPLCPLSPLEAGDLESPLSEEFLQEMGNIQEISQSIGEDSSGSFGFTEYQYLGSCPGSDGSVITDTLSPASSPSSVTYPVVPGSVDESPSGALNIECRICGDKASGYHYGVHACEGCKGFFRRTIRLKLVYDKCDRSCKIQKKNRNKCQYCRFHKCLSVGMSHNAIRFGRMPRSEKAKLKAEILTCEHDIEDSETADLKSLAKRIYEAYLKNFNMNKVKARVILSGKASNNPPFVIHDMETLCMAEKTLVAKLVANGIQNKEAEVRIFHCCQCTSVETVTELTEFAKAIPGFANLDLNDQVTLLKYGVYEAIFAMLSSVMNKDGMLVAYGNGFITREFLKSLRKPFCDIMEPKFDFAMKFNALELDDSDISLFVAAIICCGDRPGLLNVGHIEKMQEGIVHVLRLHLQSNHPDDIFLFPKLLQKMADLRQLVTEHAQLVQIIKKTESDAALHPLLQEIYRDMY
Sequence of PPARa:RXRa (P19793 whole entry, chain 2 of 2): as the sequence (P19793 whole entry, chain 2 of 2) above
Method in brief: as §1

Row | Binder | binding signal [1] | binding signal [2] | binding signal [3] | binding signal [4] | binding signal [5] | binding signal [6] | binding signal [7] | binding signal [8] | binding signal [9]
1 | B1 | -0.52 PBM z-score against 500 random probes | -0.46 PBM z-score against 500 random probes | – | – | – | – | – | – | –
2 | B2 | -0.08 PBM z-score against 500 random probes | 0.12 PBM z-score against 500 random probes | -0.14 PBM z-score against 500 random probes | – | – | – | – | – | –
3 | B3 | 7 PBM z-score against 500 random probes | 6.15 PBM z-score against 500 random probes | 5.81 PBM z-score against 500 random probes | 6.58 PBM z-score against 500 random probes | 9.04 PBM z-score against 500 random probes | 7.97 PBM z-score against 500 random probes | – | – | –
4 | B4 | – | – | – | – | – | – | 6.52 PBM z-score against 500 random probes | – | –
5 | B5 | 7.08 PBM z-score against 500 random probes | 5.9 PBM z-score against 500 random probes | 6.24 PBM z-score against 500 random probes | – | 7.61 PBM z-score against 500 random probes | 8.13 PBM z-score against 500 random probes | – | 8.27 PBM z-score against 500 random probes | 7.41 PBM z-score against 500 random probes
6 | B6 | 7.19 PBM z-score against 500 random probes | 5.85 PBM z-score against 500 random probes | 5.96 PBM z-score against 500 random probes | – | 7.89 PBM z-score against 500 random probes | 8.8 PBM z-score against 500 random probes | – | 8.36 PBM z-score against 500 random probes | 6.66 PBM z-score against 500 random probes
7 | B7 | – | – | – | – | – | – | 6.8 PBM z-score against 500 random probes | – | –
8 | B8 | -0.57 PBM z-score against 500 random probes | -0.51 PBM z-score against 500 random probes | – | – | – | -0.22 PBM z-score against 500 random probes | – | – | -0.5 PBM z-score against 500 random probes
9 | B9 | 7.77 PBM z-score against 500 random probes | 7.8 PBM z-score against 500 random probes | 6.18 PBM z-score against 500 random probes | 7.13 PBM z-score against 500 random probes | 9.5 PBM z-score against 500 random probes | 10.9 PBM z-score against 500 random probes | – | 8.93 PBM z-score against 500 random probes | –
10 | B10 | – | – | – | – | – | – | 7.42 PBM z-score against 500 random probes | – | –
